Test results: article PMC5700101

Molecular target: PBD–GFP (PBD of Polo, amino acids 350–576, C-terminally fused to GFP10) (UniProt P52304)
Assay: BRET
Conditions: live HEK293T cells; fixed amount of Luc-KD vector, increasing PBD–GFP vector; Map205 fragment co-transfected; p-value < 0.0001; parent: 0.197

“Luc-KD (KD–IDL of Polo, amino acids 1–349, N-terminally fused to RLucII), KD^WT (from UniProt P52304) NLS7A” was tested, and the other: BRET50 was 2.49 GFP/Luc.
